Assays:
HLA-A*03:01 [1] = assay: IEDB peptide-MHC binding, purified MHC/direct/fluorescence; filed as Kd, often an IC50 or EC50 that approximates it; ≥ and ≤ were set here for values at or beyond the usual limits of such assays
HLA-A*11:01 [2] = assay: as above
HLA-A*31:01 [3] = assay: IEDB peptide-MHC binding, purified MHC/competitive/fluorescence; filed as Kd, often an IC50 or EC50 that approximates it; ≥ and ≤ were set here for values at or beyond the usual limits of such assays
HLA-A*01:01 [4] = assay: as above
HLA-A*03:01 [5] = assay: as above
HLA-B*40:01 = assay: IEDB peptide-MHC binding, purified MHC/direct/fluorescence; filed as Kd, often an IC50 or EC50 that approximates it; ≥ and ≤ were set here for values at or beyond the usual limits of such assays
HLA-A*26:01 [6] = assay: as above
HLA-A*02:01 [7] = assay: as above
HLA-A*31:01 [8] = assay: as above
HLA-B*07:02 = assay: as above
HLA-B*44:02 = assay: as above
HLA-B*08:01 = assay: as above
HLA-A*69:01 = assay: as above
HLA-B*27:05 = assay: as above
HLA-A*01:01 [9] = assay: as above
HLA-B*15:01 [10] = assay: as above; settings: source organism: Giardia lamblia ATCC 50803
HLA-B*58:01 = assay: as above
HLA-B*15:01 [11] = assay: IEDB peptide-MHC binding, purified MHC/competitive/fluorescence; ≥ and ≤ were set here for values at or beyond the usual limits of such assays
HLA-A*02:12 = assay: IEDB peptide-MHC binding, purified MHC/direct/fluorescence; filed as Kd, often an IC50 or EC50 that approximates it; ≥ and ≤ were set here for values at or beyond the usual limits of such assays; settings: source organism: Vibrio cholerae V52
HLA-A*02:01 [12] = assay: IEDB peptide-MHC binding, purified MHC/competitive/fluorescence; ≥ and ≤ were set here for values at or beyond the usual limits of such assays
HLA-A*24:03 = assay: IEDB peptide-MHC binding, purified MHC/competitive/fluorescence; filed as Kd, often an IC50 or EC50 that approximates it; ≥ and ≤ were set here for values at or beyond the usual limits of such assays
HLA-A*24:02 = assay: IEDB peptide-MHC binding, purified MHC/competitive/fluorescence; ≥ and ≤ were set here for values at or beyond the usual limits of such assays
HLA-A*11:01 [13] = assay: as above; settings: source organism: Zaire ebolavirus
HLA-B*15:17 [14] = assay: IEDB peptide-MHC binding, purified MHC/direct/fluorescence; filed as Kd, often an IC50 or EC50 that approximates it; ≥ and ≤ were set here for values at or beyond the usual limits of such assays
HLA-B*57:01 [15] = assay: as above
HLA-A*02:01 [16] = assay: IEDB peptide-MHC binding, purified MHC/competitive/fluorescence; filed as Kd, often an IC50 or EC50 that approximates it; ≥ and ≤ were set here for values at or beyond the usual limits of such assays; settings: source organism: Escherichia coli
HLA-B*15:17 [17] = assay: as above; settings: source organism: Burkholderia pseudomallei K96243
HLA-A*26:01 [18] = assay: as above; settings: source organism: Burkholderia pseudomallei K96243
HLA-B*27:03 = assay: as above; settings: source organism: Burkholderia pseudomallei K96243
HLA-B*39:01 = assay: as above; settings: source organism: Burkholderia pseudomallei K96243
HLA-B*18:01 [19] = assay: as above; settings: source organism: Burkholderia pseudomallei K96243
HLA-B*46:01 = assay: as above; settings: source organism: Burkholderia pseudomallei K96243
HLA-B*57:01 [20] = assay: as above; settings: source organism: Burkholderia pseudomallei K96243
HLA-B*18:01 [21] = assay: IEDB peptide-MHC binding, purified MHC/direct/fluorescence; filed as Kd, often an IC50 or EC50 that approximates it; ≥ and ≤ were set here for values at or beyond the usual limits of such assays; settings: source organism: Orthohantavirus hantanense
HLA-A*02:11 = assay: as above; settings: source organism: Bacillus cereus H3081.97
HLA-A*03:01 [22] = assay: IEDB peptide-MHC binding, purified MHC/competitive/fluorescence; ≥ and ≤ were set here for values at or beyond the usual limits of such assays; settings: source organism: Zaire ebolavirus
[23] = source organism: Burkholderia mallei
[24] = source organism: Salmonella enterica subsp. enterica serovar Typhi
[25] = source organism: Giardia lamblia ATCC 50803
[26] = source organism: Vibrio cholerae
[27] = source organism: Vaccinia virus WR
[28] = source organism: Bacillus anthracis
[29] = source organism: Zaire ebolavirus
[30] = source organism: Brucella abortus 2308
[31] = source organism: Vaccinia virus Copenhagen
[32] = source organism: Marburg virus - Musoke, Kenya, 1980
[33] = source organism: Camelpox virus M-96
[34] = source organism: Yellow fever virus
[35] = source organism: Escherichia coli
[36] = source organism: Burkholderia pseudomallei K96243
[37] = source organism: Orthohantavirus hantanense
[38] = source organism: Yersinia pestis Antiqua

## AQHAPDAAK
HLA-A*03:01 [1]; [23]
  Kd: 2.12 µM
HLA-A*11:01 [2]; [23]
  Kd: 0.0646 µM
HLA-A*31:01 [3]; source organism: Burkholderia mallei SAVP1
  Kd: 0.172 µM

## ASDHFVETT
HLA-A*01:01 [4]; source organism: Escherichia coli APEC O1
  Kd: ≥ 20 µM

## ATTFARFLY
HLA-A*03:01 [5]; [24]
  Kd: 0.202 µM
HLA-A*01:01 [4]; [24]
  Kd: 0.0193 µM

## EFFDTEPQL
HLA-B*40:01; [25]
  Kd: 2.77 µM
HLA-A*26:01 [6]; [25]
  Kd: ≥ 20 µM
HLA-A*03:01 [1]; [25]
  Kd: ≥ 20 µM
HLA-A*02:01 [7]; [25]
  Kd: ≥ 20 µM
HLA-A*31:01 [8]; [25]
  Kd: ≥ 20 µM
HLA-B*07:02; [25]
  Kd: ≥ 20 µM
HLA-B*44:02; [25]
  Kd: ≥ 20 µM
HLA-A*11:01 [2]; [25]
  Kd: ≥ 20 µM
HLA-B*08:01; [25]
  Kd: ≥ 20 µM
HLA-A*69:01; [25]
  Kd: ≥ 20 µM
HLA-B*27:05; [25]
  Kd: ≥ 20 µM
HLA-A*01:01 [9]; [25]
  Kd: ≥ 20 µM
HLA-B*15:01 [10]
  Kd: ≥ 20 µM
HLA-B*58:01; [25]
  Kd: ≥ 20 µM

## FHKNMIKTY
HLA-B*15:01 [11]; source organism: Vaccinia virus
  IC50: 21.8 µM

## FLILCSVLL
HLA-A*02:12
  Kd: 0.007 µM
HLA-A*69:01; [26]
  Kd: 4.18 µM

## FLVINRLGA
HLA-A*02:01 [12]; [27]
  IC50: 0.795 µM
HLA-B*15:01 [11]; [27]
  IC50: ≥ 86.9 µM

## GLHATFMPK
HLA-A*03:01 [1]; [28]
  Kd: 0.0372 µM
HLA-A*11:01 [2]; [28]
  Kd: 0.0062 µM
HLA-A*31:01 [3]; source organism: Listeria monocytogenes EGD-e
  Kd: 0.151 µM

## GWTETDSSF
HLA-A*24:03; source organism: Influenza A virus (A/parrot/Ulster/73(H7N1))
  Kd: 0.304 µM

## IHYAGWVSL
HLA-B*40:01; [26]
  Kd: ≥ 20 µM
HLA-A*26:01 [6]; [26]
  Kd: ≥ 20 µM
HLA-A*03:01 [1]; [26]
  Kd: ≥ 20 µM
HLA-A*02:01 [7]; [26]
  Kd: ≥ 20 µM
HLA-A*31:01 [8]; [26]
  Kd: ≥ 20 µM
HLA-B*07:02; [26]
  Kd: 0.323 µM
HLA-B*44:02; [26]
  Kd: ≥ 20 µM
HLA-A*11:01 [2]; [26]
  Kd: ≥ 20 µM
HLA-B*08:01; [26]
  Kd: ≥ 20 µM
HLA-A*69:01; [26]
  Kd: ≥ 20 µM
HLA-B*27:05; [26]
  Kd: ≥ 20 µM
HLA-A*01:01 [9]; [26]
  Kd: ≥ 20 µM
HLA-B*58:01; [26]
  Kd: ≥ 20 µM

## IQYPTAWQS
HLA-A*02:01 [12]; [29]
  IC50: 30.6 µM
HLA-A*24:02; [29]
  IC50: 33.5 µM
HLA-B*15:01 [11]; [29]
  IC50: 25.7 µM

## ISFQQTNAM
HLA-A*02:01 [12]; [29]
  IC50: 6.39 µM
HLA-A*11:01 [13]
  IC50: ≥ 125 µM
HLA-A*24:02; [29]
  IC50: 9.81 µM
HLA-B*15:01 [11]; [29]
  IC50: 6.16 µM

## ITGLPPTEW
HLA-B*15:17 [14]; [30]
  Kd: 0.0023 µM
HLA-B*58:01; [30]
  Kd: 0.0244 µM

## KAIITPIVF
HLA-A*24:02; [31]
  IC50: 11.1 µM
HLA-B*15:01 [11]; [31]
  IC50: 15.7 µM

## KAVEKGKNW
HLA-B*15:17 [14]; [32]
  Kd: 0.0177 µM
HLA-B*58:01; [32]
  Kd: 0.0915 µM

## KFHQIEKEF
HLA-A*24:03; source organism: Influenza A virus (A/swine/Hong Kong/81/1978(H3N2))
  Kd: 0.0006 µM

## KLLQICMWF
HLA-B*40:01; [25]
  Kd: ≥ 20 µM
HLA-A*26:01 [6]; [25]
  Kd: ≥ 20 µM
HLA-A*03:01 [1]; [25]
  Kd: ≥ 20 µM
HLA-A*02:01 [7]; [25]
  Kd: 3.41 µM
HLA-B*07:02; [25]
  Kd: ≥ 20 µM
HLA-B*44:02; [25]
  Kd: ≥ 20 µM
HLA-A*11:01 [2]; [25]
  Kd: ≥ 20 µM
HLA-B*08:01; [25]
  Kd: ≥ 20 µM
HLA-A*69:01; [25]
  Kd: ≥ 20 µM
HLA-B*27:05; [25]
  Kd: ≥ 20 µM
HLA-A*01:01 [9]; [25]
  Kd: ≥ 20 µM
HLA-B*15:01 [10]
  Kd: 16.6 µM
HLA-B*58:01; [25]
  Kd: 1.47 µM
HLA-B*57:01 [15]; [25]
  Kd: ≥ 20 µM

## KSALNDFDF
HLA-B*15:17 [14]; [33]
  Kd: 0.0295 µM
HLA-B*58:01; [33]
  Kd: 0.0268 µM
HLA-B*57:01 [15]; [33]
  Kd: 0.252 µM

## KVVNRWLFR
HLA-A*11:01 [2]; [34]
  Kd: 0.0045 µM
HLA-A*31:01 [3]; [34]
  Kd: 0.0011 µM

## LMQSLYDWI
HLA-A*02:01 [16]
  Kd: 0.0362 µM
HLA-A*24:03; [35]
  Kd: 0.0441 µM

## LMRRFRFTV
HLA-B*15:17 [17]
  Kd: ≥ 20 µM
HLA-A*26:01 [18]
  Kd: ≥ 20 µM
HLA-A*03:01 [5]; [36]
  Kd: ≥ 20 µM
HLA-A*31:01 [3]; [36]
  Kd: 0.262 µM
HLA-B*27:03
  Kd: ≥ 20 µM
HLA-B*39:01
  Kd: ≥ 20 µM
HLA-B*18:01 [19]
  Kd: ≥ 20 µM
HLA-B*46:01
  Kd: ≥ 20 µM
HLA-A*24:03; [36]
  Kd: ≥ 20 µM
HLA-B*57:01 [20]
  Kd: ≥ 20 µM

## MLASIDLKY
HLA-A*01:01 [4]; source organism: Influenza A virus (A/swine/Finistere/127/99(H3N2))
  Kd: 0.427 µM

## REINAHEGQ
HLA-B*40:01; [37]
  Kd: 0.147 µM
HLA-B*44:02; [37]
  Kd: ≥ 20 µM
HLA-B*18:01 [21]
  Kd: ≥ 20 µM

## RLYNFSFLN
HLA-A*03:01 [1]; [28]
  Kd: 0.491 µM
HLA-A*02:11
  Kd: ≤ 0.001 µM

## RMGVQMQRF
HLA-A*24:03; source organism: Influenza A virus (A/swine/Hannover/1/1981(H1N1))
  Kd: 0.294 µM

## RQMLHEIGR
HLA-A*03:01 [1]; [30]
  Kd: 3.22 µM
HLA-A*11:01 [2]; [30]
  Kd: 0.66 µM
HLA-A*31:01 [3]; source organism: Paramagnetospirillum magnetotacticum MS-1
  Kd: 0.00117 µM

## RQRVIPVYQ
HLA-B*15:01 [11]; [29]
  IC50: 6.37 µM

## RTAFLRFWL
HLA-B*15:17 [14]; [35]
  Kd: 0.0015 µM

## RVYRRRLAQ
HLA-A*03:01 [1]; [23]
  Kd: 0.323 µM
HLA-A*11:01 [2]; [23]
  Kd: ≥ 20 µM
HLA-A*31:01 [3]; source organism: Burkholderia pseudomallei 1106a
  Kd: 0.0405 µM

## TFAEGVVAF
HLA-A*24:02; [29]
  IC50: 0.213 µM
HLA-B*15:01 [11]; [29]
  IC50: 18.4 µM

## VIYRGTTFA
HLA-A*03:01 [22]
  IC50: 4.21 µM
HLA-A*02:01 [12]; [29]
  IC50: 1.53 µM
HLA-A*11:01 [13]
  IC50: 38 µM
HLA-A*24:02; [29]
  IC50: 45.4 µM
HLA-B*15:01 [11]; [29]
  IC50: ≥ 70.9 µM

## VSFNQNLEY
HLA-A*01:01 [4]; source organism: Influenza A virus (A/goose/Guangdong/1/1996(H5N1))
  Kd: 0.0259 µM

## WIYDPRNQK
HLA-A*03:01 [1]; [38]
  Kd: 0.0294 µM
HLA-A*11:01 [2]; [38]
  Kd: 0.375 µM
HLA-A*31:01 [3]; [38]
  Kd: 0.107 µM

## WMAPSLTES
HLA-A*02:01 [12]; [29]
  IC50: 6.45 µM
HLA-B*15:01 [11]; [29]
  IC50: 11.4 µM

Source: the Immune Epitope Database (IEDB)
